The test has as its target C-terminal TAP-tagged PB1 (influenza A virus, strain not stated). Put plainly: pull-down.

Consider 1 molecule from publication PMC4039189.

B1: DDX21, plasmid-expressed (pcDNA3 plasmid expressing DDX21) (natural protein)
chain: MPGKLRSDAGLESDTAMKKGETLRKQTEEKEKKEKPKSDKTEEIAEEEETVFPKAKQVKKKAEPSEVDMNSPKSKKAKKKEEPSQNDISPKTKSLRKKKEPIEKKVVSSKTKKVTKNEEPSEEEIDAPKPKKMKKEKEMNGETREKSPKLKNGFPHPEPDCNPSEAASEESNSEIEQEIPVEQKEGAFSNFPISEETIKLLKGRGVTFLFPIQAKTFHHVYSGKDLIAQARTGTGKTFSFAIPLIEKLHGELQDRKRGRAPQVLVLAPTRELANQVSKDFSDITKKLSVACFYGGTPYGGQFERMRNGIDILVGTPGRIKDHIQNGKLDLTKLKHVVLDEVDQMLDMGFADQVEEILSVAYKKDSEDNPQTLLFSATCPHWVFNVAKKYMKSTYEQVDLIGKKTQKTAITVEHLAIKCHWTQRAAVIGDVIRVYSGHQGRTIIFCETKKEAQELSQNSAIKQDAQSLHGDIPQKQREITLKGFRNGSFGVLVATNVAARGLDIPEVDLVIQSSPPKDVESYIHRSGRTGRAGRTGVCICFYQHKEEYQLVQVEQKAGIKFKRIGVPSATEIIKASSKDAIRLLDSVPPTAISHFKQSAEKLIEEKGAVEALAAALAHISGATSVDQRSLINSNVGFVTMILQCSIEMPNISYAWKELKEQLGEEIDSKVKGMVFLKGKLGVCFDVPTASVTEIQEKWHDSRRWQLSVATEQPELEGPREGYGGFRGQREGSRGFRGQRDGNRRFRGQREGSRGPRGQRSGGGNKSNRSQNKGQKRSFSKAFGQ
B1 showed a percent reduction of TAP-selected PA by DDX21 (1 μg plasmid) of 75% and a percent reduction of TAP-selected PB2 by DDX21 (1 μg plasmid) of 65%.
